These results are taken from patent US20230414780A1 (VECT HORUS, published 2023).

The target in experiment [1] is T1, rhesus monkey TfR ectodomain fused to a mouse IgG1 Fc fragment (rhesus monkey, UniProt I0FKY7 89-760).
T1 construct: extracellular domain; not shown: mouse IgG1 Fc fragment
In words: SPR, at equilibrium. Here is the method: (§1) Binding properties of some VHHs were also evaluated using Surface Plasmon Resonance (SPR) experiments. The human, mouse and rhesus monkey TfR (having respectively GeneBank number NM_003234.2, NM_011638, NC_041755.1) ectodomains were fused to the N-terminal end of a mouse IgG1 Fc fragment and the recombinant proteins were produced and purified in-house. Interaction of VHHs with the receptors was tested using a Biacore T200 (GE Healthcare). Receptors were immobilized on an HC 1500M or a CM5 sensor chip (Xantec) either directly or on an anti-mouse IgG previously immobilized. VHHs were injected over flowcell by using the single-cycle kinetic or the multiple-cycle kinetic methods.
A general note: Surface plasmon resonance follows binding to a sensor surface in real time, without labels.

The target of experiment [2] is T2, human transferrin receptor (hTfR) fused to EGFP, on CHO cells (human, UniProt P02786 1-760).
T2 construct: whole, on cells; also called human TfR; CHO-hTfR-EGFP; not shown: EGFP from pEGFP-C1 vector, fused to the N-terminal (intracellular) end of hTfR
T2 sequence (P02786 whole entry, the tested form may be a part): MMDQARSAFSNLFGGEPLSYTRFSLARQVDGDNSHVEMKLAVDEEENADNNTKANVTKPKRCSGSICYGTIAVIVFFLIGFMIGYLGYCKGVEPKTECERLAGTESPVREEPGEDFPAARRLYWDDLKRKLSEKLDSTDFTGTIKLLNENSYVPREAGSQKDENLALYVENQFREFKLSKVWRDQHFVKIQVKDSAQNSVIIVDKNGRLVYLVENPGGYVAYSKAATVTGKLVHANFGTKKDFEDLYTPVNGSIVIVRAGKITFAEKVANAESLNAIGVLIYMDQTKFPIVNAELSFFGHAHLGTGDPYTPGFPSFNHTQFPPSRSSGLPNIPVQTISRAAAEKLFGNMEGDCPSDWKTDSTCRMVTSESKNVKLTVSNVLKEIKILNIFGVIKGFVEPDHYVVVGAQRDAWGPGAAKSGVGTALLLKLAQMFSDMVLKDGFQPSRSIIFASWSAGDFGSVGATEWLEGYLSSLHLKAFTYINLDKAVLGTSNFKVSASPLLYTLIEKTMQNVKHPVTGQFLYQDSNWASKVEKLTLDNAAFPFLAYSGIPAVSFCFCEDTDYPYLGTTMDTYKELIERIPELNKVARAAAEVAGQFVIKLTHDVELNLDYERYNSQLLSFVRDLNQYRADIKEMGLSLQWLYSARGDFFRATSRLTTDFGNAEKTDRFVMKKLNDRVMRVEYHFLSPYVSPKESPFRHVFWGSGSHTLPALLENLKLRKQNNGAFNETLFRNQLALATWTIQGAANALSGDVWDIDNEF
In words: apparent Kd, flow cytometry, CHO cells. Here is the method: (§2) The binding properties of VHHs with affinity for the TfR from different species (i.e., human (h), mouse (m) and rhesus monkey (rh)) were tested using flow cytometry, and apparent affinities (Kd app) were determined. All experiments were performed in 96 well plates using 2×10⁵ cells/well, at 4° C. with shaking. CHO cell lines expressing the hTfR, mTfR or rhTfR fused to EGFP were saturated with PBS/BSA 2% solution during 30 min to avoid nonspecific binding, followed by incubation with purified VHHs at increasing concentrations for 1 hr. After one wash in PBS/BSA 2%, cells were incubated for 1 hr with an anti-6His tag antibody (mouse), washed twice with PBS/BSA 2%, and incubated for 1 hr with an Alexa647-conjugated anti-mouse secondary antibody. After two last washes in PBS/BSA 2%, cells were fixed by incubation for 15 min with PBS/PFA 2%, washed once with PBS and finally resuspended in PBS. Fluorescence levels were assessed using an Attune NxT flow cytometer (Thermo Fisher Scientific). Experimental data were fitted with GraphPad Prism® software using a nonlinear fit to determine the apparent Kd constants. […] Table 5 hereafter summarizes apparent Kd obtained for the tested VHHs.
(In general: A flow cytometer gives signals particle by particle.)

For experiment [3], the target named is T3, rhesus monkey transferrin receptor (rhTfR) fused to EGFP, on CHO cells (rhesus monkey).
T3 construct: whole, on cells; also called rhesus monkey TfR
The experiment is described as follows: apparent Kd, flow cytometry, CHO cells. Here is the method: as §2

The target in experiment [4] is T4, mouse transferrin receptor (mTfR) fused to EGFP, on CHO cells (mouse, UniProt Q62351 1-763).
T4 construct: whole, on cells; also called mouse TfR; CHO-mTfR-EGFP; not shown: EGFP
T4 sequence (Q62351 whole entry, the tested form may be a part): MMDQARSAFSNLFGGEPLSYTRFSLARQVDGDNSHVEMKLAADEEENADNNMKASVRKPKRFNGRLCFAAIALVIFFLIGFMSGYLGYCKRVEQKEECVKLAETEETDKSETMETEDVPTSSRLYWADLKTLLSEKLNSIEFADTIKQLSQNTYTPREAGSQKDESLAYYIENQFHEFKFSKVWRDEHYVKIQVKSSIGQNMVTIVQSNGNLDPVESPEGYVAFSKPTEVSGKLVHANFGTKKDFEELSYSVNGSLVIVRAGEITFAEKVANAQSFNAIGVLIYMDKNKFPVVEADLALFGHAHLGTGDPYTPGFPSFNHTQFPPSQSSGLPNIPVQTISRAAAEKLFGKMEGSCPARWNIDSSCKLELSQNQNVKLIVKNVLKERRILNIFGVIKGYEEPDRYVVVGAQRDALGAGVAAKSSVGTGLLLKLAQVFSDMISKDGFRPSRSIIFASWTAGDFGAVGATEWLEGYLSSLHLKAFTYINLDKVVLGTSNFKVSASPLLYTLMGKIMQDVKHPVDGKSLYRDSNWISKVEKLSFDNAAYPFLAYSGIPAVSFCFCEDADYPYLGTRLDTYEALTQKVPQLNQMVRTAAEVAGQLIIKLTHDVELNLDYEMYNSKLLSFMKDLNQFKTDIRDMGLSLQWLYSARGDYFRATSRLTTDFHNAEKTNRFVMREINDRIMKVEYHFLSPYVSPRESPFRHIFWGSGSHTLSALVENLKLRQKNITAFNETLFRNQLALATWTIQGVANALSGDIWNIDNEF
The experiment is described as follows: apparent Kd, flow cytometry, CHO cells. Here is the method:
as §2

Experiment [5] deals with T5, human TfR ectodomain fused to a mouse IgG1 Fc fragment (human, UniProt P02786 89-760).
T5 construct: extracellular domain; ectodomain fused to the N-terminal end of the Fc, made in-house; not shown: mouse IgG1 Fc fragment
T5 sequence (P02786 89-760): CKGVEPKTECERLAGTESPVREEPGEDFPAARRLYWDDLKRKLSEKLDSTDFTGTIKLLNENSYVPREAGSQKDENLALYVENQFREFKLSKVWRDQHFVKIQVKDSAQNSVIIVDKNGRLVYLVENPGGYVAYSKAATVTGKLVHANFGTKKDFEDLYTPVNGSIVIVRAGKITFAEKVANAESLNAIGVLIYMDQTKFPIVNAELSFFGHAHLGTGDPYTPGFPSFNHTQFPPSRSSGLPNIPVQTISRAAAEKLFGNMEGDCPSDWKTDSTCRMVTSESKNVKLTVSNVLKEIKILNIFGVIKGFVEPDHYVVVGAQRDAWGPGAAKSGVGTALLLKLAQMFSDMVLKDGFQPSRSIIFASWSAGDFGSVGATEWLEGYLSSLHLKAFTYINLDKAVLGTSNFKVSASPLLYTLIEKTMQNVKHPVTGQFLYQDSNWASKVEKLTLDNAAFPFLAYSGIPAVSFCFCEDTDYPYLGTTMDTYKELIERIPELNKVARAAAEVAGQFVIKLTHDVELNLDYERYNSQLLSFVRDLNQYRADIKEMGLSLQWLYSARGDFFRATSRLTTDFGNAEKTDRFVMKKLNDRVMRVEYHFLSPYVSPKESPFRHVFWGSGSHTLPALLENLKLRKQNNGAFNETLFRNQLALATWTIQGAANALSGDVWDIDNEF
In words: SPR, kinetic. The method, then:
as §1

Experiment [6] addresses T1, rhesus monkey TfR ectodomain fused to a …. The experiment is described as follows: SPR, kinetic. The method, then:
as §1

Experiment [7] addresses T5, human TfR ectodomain fused to a mouse …. The experiment is described as follows: SPR, at equilibrium. The method, then:
as §1

Experiment [8] deals with T6, mouse TfR ectodomain fused to a mouse IgG1 Fc fragment (mouse, UniProt Q62351 89-763).
T6 construct: extracellular domain; not shown: mouse IgG1 Fc fragment
T6 sequence (Q62351 89-763): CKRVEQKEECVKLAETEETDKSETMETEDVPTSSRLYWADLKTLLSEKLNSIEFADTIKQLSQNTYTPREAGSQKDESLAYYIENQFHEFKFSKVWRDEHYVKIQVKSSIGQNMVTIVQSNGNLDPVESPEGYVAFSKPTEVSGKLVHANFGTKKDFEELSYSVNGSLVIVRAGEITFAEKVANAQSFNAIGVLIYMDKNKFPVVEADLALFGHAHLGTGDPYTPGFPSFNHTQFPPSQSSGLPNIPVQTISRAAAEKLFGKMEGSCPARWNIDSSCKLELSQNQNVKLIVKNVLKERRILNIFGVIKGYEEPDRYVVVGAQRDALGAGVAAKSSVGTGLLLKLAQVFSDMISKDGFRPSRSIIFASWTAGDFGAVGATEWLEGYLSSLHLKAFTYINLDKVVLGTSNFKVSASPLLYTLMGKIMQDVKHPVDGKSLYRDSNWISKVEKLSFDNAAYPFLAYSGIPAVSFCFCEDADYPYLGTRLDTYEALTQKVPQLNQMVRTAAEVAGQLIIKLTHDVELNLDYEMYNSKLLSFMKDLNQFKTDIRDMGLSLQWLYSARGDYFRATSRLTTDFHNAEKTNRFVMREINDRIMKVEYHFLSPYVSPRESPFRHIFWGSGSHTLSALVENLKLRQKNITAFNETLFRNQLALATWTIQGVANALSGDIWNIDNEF
In words: SPR, kinetic. Here is the method:
as §1

B1: B8^V12 (VHH)
VHH: EVQLVESGGGVVQPGGSLRLSCAASGEIFYINFMRWYRQAPGKQREWVAGFTRDGSTNYPDSAKGRFTISRDNAKNTVYLQIDSLKPEDTAVYYCYMLDTWGQGTQVTVSS
One may read the koff as a measure of how fast the partners let go of each other. As a reminder, the kon is a measure of how fast the partners come together. As to B1, the Kd in experiment [1] worked out at 25.1 nM; in experiment [2], 4.7 nM; in experiment [3], 6.9 nM; in experiment [4] it was 743 nM; in experiment [5], 0.984 nM; in experiment [6] it was 12.1 nM. Also, the values for the koff in experiment [5] and in experiment [6] were 0.00169 s⁻¹ and 0.0119 s⁻¹, respectively. The on-rate constant (kon) in experiment [5] came out at 1.04e+06 M⁻¹ s⁻¹; in experiment [6], 997000 M⁻¹ s⁻¹.

B2: B8^V29 (VHH)
VHH: EVQLVESGGGVVQPGGSLRLSCAASGEIFSINFMRWYRQAPGKQREWVAGFTRDGSTNYPDSAKGRFTISRDNAKNTVYLQIDSLKPEDTAVYYCYMADTWGQGTQVTVSS
Take B2: the Kd was found to be 21.8 nM in experiment [7]; 100 nM in experiment [1]; 9 nM in experiment [2]; 72 nM in experiment [3]; 1670 nM in experiment [4]; 44 nM in experiment [5]. Moreover, in experiment [6], the Kd was 202 nM. Further, the koff in experiment [5] is 0.0169 s⁻¹; in experiment [6], 0.0942 s⁻¹. Moreover, the kon in experiment [5] is 682000 M⁻¹ s⁻¹; in experiment [6], 1.16e+06 M⁻¹ s⁻¹.

B3: B8^V27 (VHH)
VHH: EVQLVESGGGVVQPGGSLRLSCAASGEIFSINFMRWYRQAPGKQREWVAGFTRDGSTVYPDSAKGRFTISRDNAKNTVYLQIDSLKPEDTAVYYCYMLDTWGQGTQVTVSS
On to B3, for which the Kd in experiment [7] was determined as 3.22 nM; in experiment [1] it was 36.8 nM; in experiment [2], 6.8 nM; in experiment [3], 16 nM; in experiment [4], 760 nM; in experiment [5], 7.29 nM. Moreover, the Kd in experiment [6] worked out at 53.8 nM. Also, the koff is 0.00722 s⁻¹ in experiment [5] and 0.0206 s⁻¹ in experiment [6]. The kon in experiment [5] is 1.01e+06 M⁻¹ s⁻¹; in experiment [6] it was 455000 M⁻¹ s⁻¹.

B4: B8^V36 (VHH)
VHH: EVQLVESGGGVVQPGGSLRLSCAASGEIFSINVMRWYRQAPGKQREWVAGFTRDGSTNYPDSAKGRFTISRDNAKNTVYLQIDSLKPEDTAVYYCYMLDTWGQGTQVTVSS
B4: the Kd amounted to 39.2 nM in experiment [7]; 206 nM in experiment [1]; 27 nM in experiment [2]; 130 nM in experiment [3]; 891 nM in experiment [4]; 33.3 nM in experiment [5]. Moreover, the off-rate constant (koff) in experiment [5] was 0.019 s⁻¹. Besides, in experiment [5], the kon is 571000 M⁻¹ s⁻¹.

B5: B8^V16 (VHH)
VHH: EVQLVESGGGVVQPGGSLRLSCAASGEIFSINFMRWYRQAPGKQREQVAGFTRDGSTNYPDSAKGRFTISRDNAKNTVYLQIDSLKPEDTAVYYCYMLDTWGQGTQVTVSS
In the case of B5, the Kd amounted to 76.3 nM in experiment [7]; 222 nM in experiment [1]; 6.2 nM in experiment [2]; 307 nM in experiment [3]; 3.6 nM in experiment [4]; 12.8 nM in experiment [5]. Moreover, in experiment [6], the Kd was 135 nM. For the same molecule, the koff in experiment [5] was 0.0133 s⁻¹; in experiment [6] it was 0.0438 s⁻¹. The kon in experiment [5] is 1.03e+06 M⁻¹ s⁻¹; in experiment [6], 325000 M⁻¹ s⁻¹.

B6: C5^V16h20 (VHH)
VHH: EVQLVESGGGVVQPGGSLRLSCAASGTDFSINFIRWYRQAPGKGLEFVAGFTATGNTNYADSVKGRFTISRDNAKNAVYLQMNSLRPEDTAVYYCYILDKWGQGTQVTVSS
Turning to B6, the Kd stood at 115 nM in experiment [7]; 23 nM in experiment [2]; 793 nM in experiment [3]; 622 nM in experiment [4]; 112 nM in experiment [5]; 301 nM in experiment [8]. Besides, the koff in experiment [5] was 0.0399 s⁻¹; in experiment [8] it was 0.075 s⁻¹. For the same molecule, the kon in experiment [5] amounted to 360000 M⁻¹ s⁻¹; in experiment [8], 251000 M⁻¹ s⁻¹.

B7: C5^h25 (VHH)
VHH: EVQLVESGGGVVQPGGSLRLSCAASGTDFSINFIRWVRQAPGKGLEFVAGFTATGNTNYADSVKGRFTISRDNAKNTLYLQIDSLRPEDTAVYYCYMLDKWGQGTQVTVSS
With B7, the Kd in experiment [7] turned out to be 1550 nM; in experiment [2], 777 nM; in experiment [4], 755 nM.

B8: VHH A8 (C5^V8) (VHH)
VHH: EVQLVESGGGVVQPGGSLKLSCVASGTDFSINFIRWYRQAPGKQREFVAGFTATGNTNYADSMKGRFTISRDNTKNAVYLQIDSLKPEDTAVYYCYMLAKWGQGTQVTVSS
As to B8, the Kd was found to be 84.3 nM in experiment [7]; 23 nM in experiment [2]; 494 nM in experiment [3]; 427 nM in experiment [4]; 94.8 nM in experiment [5]. The molecule further gave a koff in experiment [5] of 0.0558 s⁻¹. For the same molecule, the kon in experiment [5] was 504000 M⁻¹ s⁻¹.

B9: C5^V30 (VHH)
VHH: EVQLVESGGGVVQPGGSLKLSCVASGTDKSINFIRWYRQAPGKQREFVAGFTATGNTNYADSMKGRFTISRDNTKNAVYLQIDSLKPEDTAVYYCYMLDKWGQGTQVTVSS
As to B9, the Kd was 112 nM in experiment [7]; 339 nM in experiment [1]; 31 nM in experiment [2]; 362 nM in experiment [3]; 696 nM in experiment [4]; 94 nM in experiment [5]. In addition, the Kd in experiment [6] is 373 nM. In addition, the results for the koff in experiment [5] and in experiment [6] were 0.03 s⁻¹ and 0.192 s⁻¹, respectively. In addition, the kon was found to be 319000 M⁻¹ s⁻¹ in experiment [5] and 515000 M⁻¹ s⁻¹ in experiment [6].

B10: VHH A18 (C5^V18) (VHH)
VHH: EVQLVESGGGVVQPGGSLKLSCVASGTDFSINFIRWYRQAPGKQREFVAGFTATGNTNYADSMKGRFTISRDNTKNAVYLQIDSLKPEDTAVYYCYMVDKWGQGTQVTVSS
Take B10: the Kd in experiment [7] stood at 37.8 nM; in experiment [2] it was 12 nM; in experiment [3], 481 nM; in experiment [4], 416 nM; in experiment [5], 43.3 nM. Also, the koff in experiment [5] is 0.021 s⁻¹. Also, the kon in experiment [5] came to 487000 M⁻¹ s⁻¹.

B11: C5^V32 (VHH)
VHH: EVQLVESGGGVVQPGGSLKLSCVASGTDFSINFIRWYSQAPGKQREFVAGFTATGNTNYADSMKGRLTISRDNTKNAVYLQIDSLKPEDTAVYYCYMLGKWGQGTQVTVSS
For B11, the Kd in experiment [7] was 38.6 nM; in experiment [1], 265 nM; in experiment [2], 66 nM; in experiment [3], 653 nM; in experiment [4], 1740 nM; in experiment [5], 35.8 nM. For the same molecule, the Kd in experiment [6] was 358 nM. Moreover, the figures for the koff in experiment [5] and in experiment [6] were 0.0247 s⁻¹ and 0.266 s⁻¹, respectively. Besides, the kon in experiment [5] came out at 692000 M⁻¹ s⁻¹; in experiment [6] it was 745000 M⁻¹ s⁻¹.

B12: C5^V31 (VHH)
VHH: EVQLVESGGGVVQPGGSLKLSCVASGTDRSINFIRWYRQAPGKQREFVAGFTATGNTNYADSMKGRFTISRDNTKNAVYLQIDSLKPEDTAVYYCYMLDKWGQGTQVTVSS
In the case of B12, the Kd in experiment [7] came to 64.8 nM; in experiment [1], 242 nM; in experiment [2] it was 11 nM; in experiment [3], 256 nM; in experiment [4] it was 445 nM; in experiment [5], 47.5 nM. Also, the Kd in experiment [6] amounted to 234 nM. Further, the figures for the koff in experiment [5] and in experiment [6] were 0.0182 s⁻¹ and 0.123 s⁻¹, respectively. Also, the kon in experiment [5] was found to be 383000 M⁻¹ s⁻¹; in experiment [6] it was 524000 M⁻¹ s⁻¹.
